Assay results reported in paper PMC4742562, “Structure and Interactions of a Dimeric Variant of sHIP, a Novel Virulence Determinant of Streptococcus pyogenes” (Frontiers in Microbiology, 2016).
Entries after “also recorded” stand apart in the source; their conditions may differ.

B1: HRG: abundant plasma glycoprotein of approximately 60 kDa; recombinant His-tagged HRG (protein)
chain: VSPTDCSAVEPEAEKALDLINKRRRDGYLFQLLRIADAHLDRVENTTVYYLVLDVQESDCSVLSRKYWNDCEPPDSRRPSEIVIGQCKVIATRHSHESQDLRVIDFNCTTSSVSSALANTKDSPVLIDFFEDTERYRKQANKALEKYKEENDDFASFRVDRIERVARVRGGEGTGYFVDFSVRNCPRHHFPRHPNVFGFCRADLFYDVEALDLESPKNLVINCEVFDPQEHENINGVPPHLGHPFHWGGHERSSTTKPPFKPHGSRDHHHPHKPHEHGPPPPPDERDHSHGPPLPQGPPPLLPMSCSSCQHATFGTNGAQRHSHNNNSSDLHPHKHHSHEQHPHGHHPHAHHPHEHDTHRQHPHGHHPHGHHPHGHHPHGHHPHGHHPHCHDFQDYGPCDPPPHNQGHCCHGHGPPPGHLRRRGPGKGPRPFHCRQIGSVYRLPPLRKGEVLPLPEANFPSFPLPHHKHPLKPDNQPFPQSVSESCPGKFKSGFPQVSMFFTHTFPK
modifications: left off: His-tag, end not stated, kept
notes: abundant plasma glycoprotein of approximately 60 kDa; recombinant His-tagged HRG
B2: sHIPqp (protein)
chain: SMKQDQLIVEKMEQTYEAFSPKLANLIEALDAFKEHYEEYATLRNFYSSDEWFRLANQPWDDIPSGVLSEDLLFDMIGDHNQLAADIADLAPIMAKHM
modifications: left off: His-tag, N-terminal, cleaved

How the values were obtained:
[1] = ref Rydengård et al., 2007; cited from earlier work
S. pyogenes = settings: ref Shannon et al., 2010; cited from earlier work
sHIP = settings: previous studies; ref Wisniewska et al., 2014; cited from earlier work
Text: In a recent study, we quantitatively analyzed and compared S. pyogenes proteins in the growth medium of a strain that is virulent to mice (AP1), with a non-virulent strain (SF370).

[2] = Analytical ultracentrifugation, sedimentation velocity (oligomeric state in solution); assay type: physicochemical; settings: 20°C, 50000 rpm, Beckman XL-I, 20 mM MES, pH 5.5, SEDFIT c(S)
Description: Sedimentation velocity experiments were performed at 20°C and 50000 rpm using a Beckman XL-I instrument. Samples containing either sHIPwt or sHIPqp were in 20 mM MES buffer (2-(N-morpholino) ethanesulfonic acid), pH 5.5. The data were analyzed with SEDFIT using a continuous c (S) distribution (Schuck, [2000]). HYDROPRO (Ortega et al., [2011]) was used to calculate the theoretical sedimentation coefficient using the PDB IDs 4MER (sHIPwt) and 4PZ1 (sHIPqp), respectively.
Figure 2 Sedimentation velocity experiments for protein sHIP. The dotted lines indicate the theoretical sedimentation coefficient for a tetramer and a dimer respectively calculated using HYDROPRO and the structural coordinates for protein sHIPwt (PDB ID: 4MER) and protein sHIPqp (PDB ID: 4PZ1). The wild-type sHIPwt is shown in black, and the sHIPqp mutant in red respectively.

[3] = system: histidine-rich glycoprotein (HRG); experiment: Antimicrobial assay: inhibition of the bactericidal activity of HRG against S. pyogenes AP1; assay type: cell-based; settings: recombinant His-tagged HRG 0.45 μM, S. pyogenes AP1 2 × 10^6 cfu/ml, 10 mM MES, pH 5.5, 5 mM glucose, various sHIP concentrations, 40 min, 37°C, cfu counts, at least three repeats, mean ± SD (values only in Figure 3)
Description: The S. pyogenes strain AP1 (40/58), was from the World Health Organization Collaborating Centre for Reference and Research on Streptococci, Prague, Czech Republic. The bacteria were cultivated in THY (Todd-Hewitt broth (Difco) supplemented with 0.2% yeast extract (Oxoid) at 37°C and 5% CO2 until reaching mid-log phase (OD 620 nm approximately 0.4). The bacterial cells were washed and resuspended in 10 mM Tris-HCl, pH 7.5, containing 5 mM glucose, to a concentration of 2 × 10^9 cfu (colony forming unit)/ml. Subsequently, the bacteria were diluted to a concentration of 2 × 10^6 cfu/ml in 10 mM MES buffer, pH 5.5, containing 5 mM glucose. Fifty microliters of the bacterial solution was incubated with recombinant His-tagged HRG (Creative Biomart) at a concentration of 0.45 μM together with various concentrations of protein sHIPwt or protein sHIPqp for 40 min at 37°C. Serial dilutions of the incubation mixtures were plated on TH agar, plates were incubated over night at 37°C and the number of cfu's were determined.
Experiments were repeated at least three times and mean values ± SD are shown.

[4] = system: histidine-rich glycoprotein (HRG); experiment: Interaction of the sHIP mutant with intact HRG and histidine-rich repeats; assay type: binding; settings: stated in abstract; no separate data shown

| Molecule | antimicrobial potency [1] | antibacterial activity against S. pyogenes (S. pyogenes) | affinity for sHIP (in words) (sHIP) | oligomeric state in solution [2] | oligomeric state in solution ([2]; listed as sHIP mutant) | inhibition of the bactericidal activity of HRG [3] | inhibition of the bactericidal activity of HRG ([3]; listed as sHIP mutant) | interaction with intact HRG and the histidine-rich repeats in HRG [4] |
| --- | --- | --- | --- | --- | --- | --- | --- | --- |
| B1 | broad antimicrobial potency | antibacterial activity including activity against S. pyogenes | nanomolar to micromolar affinity; also recorded: high affinity |  |  |  |  |  |
| B2 |  |  |  | dimers in solution | only as dimers in solution | inhibits the bactericidal activity of HRG to the same or even higher extent that wildtype sHIP; also recorded: inhibits the bactericidal activity of HRG more efficiently than protein sHIP wildtype; also recorded: maintain its full inhibitory capacity of HRG in antimicrobial assays | inhibits their antibacterial activity to the same or even higher extent as compared to the wild type protein sHIP | interacts with intact histidine-rich glycoprotein (HRG) and the histidine-rich repeats in HRG |
